# From patent publication US8198236B2, “Methods and compositions for the treatment of cancer” (Washington University, priority 2007, dated 2012)
# B1: Mesd: Recombinant full-length mouse Mesd expressed in E. coli, N-terminal polyhistidine tail, lacking the signal peptide (protein)
# chain: ADTPGEATPPPRKKKDIRDYNDADMARLLEQWEKDDDIEEGDLPEHKRPSAPIDFSKLDPGKPESILKMTKKGKTLMMFVTVSGNPTEKETEEITSLWQGSLFNANYDVQRFIVGSDRAIFMLRDGSYAWEIKDFLVSQDRCAEVTLEGQMYPGKGGGSKEKNKTKPEKAKKKEGDRKPRASKEDNRAGSRREDL
# modifications: left off: small tags and cut ends
# notes: Recombinant full-length mouse Mesd expressed in E. coli, N-terminal polyhistidine tail, lacking the signal peptide
# Legend:
# LRP5 [1] = molecular target: T1, LRP5 (Homo sapiens, UniProt O75197); assay: 125I-DKK1 binding to LRP5; settings: FIG. 10B
# Protocol: In order to investigate the binding of Mesd polypeptide and an Mesd oligopeptide to either LRP5 or LRP6, binding assays were performed using ^125I-Mesd or ^125I-DKK1 (FIG. 10).
# LRP5 [2] = molecular target: T1, LRP5; assay: 125I-Mesd binding to HEK293 cells transiently transfected with LRP5; set-up: Plasmid pcDNA3.1C-Myc-hLRP5 containing the full-length human LRP5 cDNA; expressed in transfected cells; host or cells: HEK293 cells, transient transfection; settings: 125I-Mesd 5 nM, 4 hours at 4° C.
# Protocol: Cells (2×10^5) were seeded into 12-well dishes 1 day prior to assay. Ligand-binding buffer (minimal Eagle's medium containing 0.6% BSA with a different concentration of radioligand, 0.6 ml/well) was added to cell monolayers, in the absence or the presence of 500 nM unlabeled RAP or 500 nM unlabeled Mesd, followed with incubation for 0-4 hours at 4° C. Thereafter, overlying buffer containing unbound ligand was removed, and cell monolayers were washed and lysed in low-SDS lysis buffer (62.5 mM Tris-HCl pH 6.8, 0.2% SDS, 10% v/glycerol) and counted.
# To determine whether Mesd binds to other members of the LDLR family, ^125I-Mesd binding analysis was performed with four groups of cells expressing different members of the LDLR family (FIG. 2). In the first experiment, HEK293 cells were transiently transfected with cDNAs for the LDLR, LRP5, LRP6 or empty pcDNA3 vector. […]
# HCC1187 cells = assay: MTT assay of Wnt3a CM-stimulated growth of HCC1187 cells; format: cell-based, human; settings: Mesd 1 μM, 24 h
# Protocol: Cell growth and cell proliferation were measured by MTT assay (Promega) and BrdU incorporation using the BrdU ELISA kit (Roche Molecular Systems) according to the manufacturers' instructions. […] Breast cancer cells expressing control or LRP6 shRNA were seeded into 48-well plates. MTT-labeling reagent was added to each well 24 h later, and plates were incubated at 37° C. for 4 h. After the incubation period, the formazan crystals were dissolved in an MTT solubilization reagent and the resulting color was quantified spectrophotometrically. In some experiments, cell proliferation was measured by BrdU incorporation using the BrdU ELISA kit (Roche Molecular Systems) according to the manufacturer's instructions. Briefly, cancer cells expressing control or LRP6 shRNA were plated on 96-well plate. Cells were incubated with BrdU for 24 h, and the newly synthesized BrdU-DNA was then determined by colorimetry using an ELISA reader. All experiments were performed three times in triplicate.
# In FIG. 20, * indicates p<0.05 compared to L cell CM; ** indicates p<0.01 compared to L cell CM.
# Wnt signaling = assay: TCF/LEF-luc reporter assay in Wnt-3A-treated HEK293 cells; format: cell-based; settings: Wnt3A conditioned medium plus 500 nM, 16 hours at 37° C.
# Protocol: HEK293 cells were plated into six-well plates. For each well, 0.1 μg of the TOP-FLASHTCF luciferase construct (Upstate Biotechnology) was cotransfected with 0.8 μg Mesd-expressing vector, 0.8 μg Mesd mutant-expressing vector, or empty vector. A β-galactosidase-expressing vector (Promega, Madison, Wis.) was included as an internal control for transfection efficiency. After 48 hours, cells were lysed and both luciferase and β-galactosidase activities were determined with enzyme assay kits (Promega). The luciferase activity was determined with a luminometer using the Dual Luciferase Assay system (Promega). Luciferase activity was normalized to the activity of the β-galactosidase.
# In these experiments, transfected cells were treated without Wnt-3A or with Wnt-3A plus the indicated inhibitors (Mesd and/or Dkk1) for 16 hours at 37° C. Wnt signaling was measured by quantifying the luciferase activity using a live cell imaging system.
# T1 sequence (O75197 32-1615): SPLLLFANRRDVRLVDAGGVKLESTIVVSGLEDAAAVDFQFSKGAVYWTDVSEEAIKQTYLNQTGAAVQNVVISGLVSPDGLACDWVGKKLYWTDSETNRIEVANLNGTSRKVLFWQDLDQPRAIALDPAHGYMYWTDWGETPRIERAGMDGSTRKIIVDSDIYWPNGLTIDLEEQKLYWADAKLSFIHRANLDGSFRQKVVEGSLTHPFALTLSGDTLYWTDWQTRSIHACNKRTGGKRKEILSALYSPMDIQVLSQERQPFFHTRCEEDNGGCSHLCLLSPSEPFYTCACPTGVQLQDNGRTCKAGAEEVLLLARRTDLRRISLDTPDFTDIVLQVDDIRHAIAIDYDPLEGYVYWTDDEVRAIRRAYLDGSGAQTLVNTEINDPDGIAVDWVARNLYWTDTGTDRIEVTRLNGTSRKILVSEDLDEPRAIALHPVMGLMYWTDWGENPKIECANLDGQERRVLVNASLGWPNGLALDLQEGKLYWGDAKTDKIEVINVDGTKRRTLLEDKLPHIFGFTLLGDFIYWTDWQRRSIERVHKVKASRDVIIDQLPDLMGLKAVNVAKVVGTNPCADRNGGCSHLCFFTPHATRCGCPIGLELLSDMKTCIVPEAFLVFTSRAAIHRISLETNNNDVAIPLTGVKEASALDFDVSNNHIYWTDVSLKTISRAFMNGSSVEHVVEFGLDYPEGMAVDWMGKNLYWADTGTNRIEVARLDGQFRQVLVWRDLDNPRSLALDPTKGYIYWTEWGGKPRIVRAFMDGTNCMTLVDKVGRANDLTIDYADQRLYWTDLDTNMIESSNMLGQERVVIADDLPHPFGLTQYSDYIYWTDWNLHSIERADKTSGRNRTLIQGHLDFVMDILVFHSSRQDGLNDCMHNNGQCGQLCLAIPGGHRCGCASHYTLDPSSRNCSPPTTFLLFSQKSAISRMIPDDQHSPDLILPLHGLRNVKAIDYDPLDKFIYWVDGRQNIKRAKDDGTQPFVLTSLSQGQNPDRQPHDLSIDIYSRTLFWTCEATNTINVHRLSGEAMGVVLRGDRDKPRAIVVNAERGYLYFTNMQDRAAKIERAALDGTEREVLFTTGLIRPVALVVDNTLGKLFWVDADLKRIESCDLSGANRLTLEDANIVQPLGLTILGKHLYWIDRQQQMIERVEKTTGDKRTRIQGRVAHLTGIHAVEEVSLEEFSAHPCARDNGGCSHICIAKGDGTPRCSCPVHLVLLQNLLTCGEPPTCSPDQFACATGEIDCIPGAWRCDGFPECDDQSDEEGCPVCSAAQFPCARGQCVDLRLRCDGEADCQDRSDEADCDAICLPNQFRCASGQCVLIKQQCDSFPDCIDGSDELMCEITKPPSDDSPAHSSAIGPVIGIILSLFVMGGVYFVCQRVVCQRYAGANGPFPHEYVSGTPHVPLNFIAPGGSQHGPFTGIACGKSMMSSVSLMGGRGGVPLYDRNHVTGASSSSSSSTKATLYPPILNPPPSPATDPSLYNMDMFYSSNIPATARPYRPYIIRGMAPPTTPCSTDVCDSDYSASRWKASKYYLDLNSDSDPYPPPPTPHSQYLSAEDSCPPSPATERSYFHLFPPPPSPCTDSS
molecule,measurement,setting,value
B1,Reduction in binding of 125I-DKK1 to LRP5,LRP5 [1],small but significant reduction
same,Mesd binding to LRP5,LRP5 [2],"specifically binds to Mesd, albeit at lower levels compared to LRP6"
same,Effect on Wnt3a CM-increased cell growth,HCC1187 cells,abolished
same,Inhibition of Wnt signaling (luciferase activity),Wnt signaling,moderately inhibit
